Experimental findings from article PMC4686654 are described below.

Broadly, the Kd is the equilibrium constant for the complex coming apart. High values mean a looser complex, low ones a tighter complex.

Test [1] concerns the target EGFP-RhoA (UniProt P61586). Description: fluorescence polarisation; 100 nM EGFP-RhoA.GDP titrated with Dbs; 20 mM Tris pH 7.4, 150 mM KCl, 1 mM TCEP, 1 mM EDTA (nucleotide-free RhoA); 25 °C. A general note: In fluorescence polarisation assays a small probe gives low polarisation when free and higher when bound to something large.
The target of test [2] is EGFP-RhoA (UniProt P61586). Description: fluorescence polarisation; 100 nM EGFP-RhoA.GDP titrated with Dbs; 20 mM Tris pH 7.4, 150 mM KCl, 1 mM TCEP, 2 mM MgCl2 (nucleotide-loaded RhoA); 25 °C.
Sequence of EGFP-RhoA (P61586 whole entry): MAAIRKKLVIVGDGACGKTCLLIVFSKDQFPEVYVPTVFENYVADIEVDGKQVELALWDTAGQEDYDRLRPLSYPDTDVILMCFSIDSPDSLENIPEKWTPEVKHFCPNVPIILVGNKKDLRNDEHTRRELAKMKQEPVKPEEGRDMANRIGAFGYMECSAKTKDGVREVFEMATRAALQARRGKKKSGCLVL

B1: guanine exchange factor Dbs 622-965 (domain or fragment)
chain: TGEEEESLAILRRHVMNELLDTERAYVEELLCVLEGYAAEMDNPLMAHLISTGLQNKKNILFGNMEEIYHFHNRNIPAGLESCIDCPELVGRCFLERMEEFQIYEKYCQNKPRSESLWRQCSDCPFFQECQKKLDHKLSLDSYLLKPVQRITKYQLLLKEMLKYSKHCEGAEDLQEALSSILGILKAVNDSMHLIAITGYDGNLGDLGKLLMQGSFSVWTDHKKGHTKVKELARFKPMQRHLFLHEKAVLFCKKREENGEGYEKAPSYSYKQSLNMTAVGITENVKGDTKKFEIWYNAREEVYIIQAPTPEIKAAWVNEIRKVLTSQLQACREASQHRALEQSH
Take B1: the Kd in test [1] was determined as 0.354 µM; in test [2], 21.2 µM.
